Source: the RNAGym collection of RNA variant scans (doi:10.1093/nar/gkz1192)

B1: CPEB3 Ribozyme (parent)
chain: UAACAGGGGGCCACAGCAGAAGCGUUCACGUCGCAGCCCCUGUCAGAUUCUGGUGAAUCUGCGAAUUCUGCUGUAUAUCUC

Variants of: B1
Assay: self-cleavage, relative activity (ratio to wild type); higher = more cleavage; in vitro, sequencing
How it was run: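 Relative activity was defined as the cleaved/total read fraction for a variant divided by the same fraction for the unmutated ribozyme. CPEB3 self-cleaving ribozyme libraries were made by rounds of error-prone PCR, barcoded, and transcribed in vitro with T7 RNA polymerase for 5 hours at 37°C, and cleavage ran through transcription plus a 15 min DNase I step before EDTA. Illumina sequencing of template-switched reverse transcripts gave the reads, and DNA sequencing mapped the barcodes. Averages come from three batches, using variants with at least 5 reads.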
With UAACAGGGGGCCACAGCAGAAGCGUUCACGUCGCAGCCCCUGUCAGAUUGUGGUGAAUCUGCGAAUUCUGCAGUAUAUCUC the self-cleavage was 0.58.
For UAACAGGGGGCCACAGCAGAAGCGUUCACGUCGCAGCCCCUGUCAGAUUGUGGUGAAUCUGCGAAUUCUGCCGUAUAUCUC, the self-cleavage was 0.75.
UAACAGGGGGCCACAGCAGAAGCGUUCACGUCGCAGCCCCUGUCAGAUUCAGGUGAAUCUGCGAAUUCUGCUGUUUAUCUC showed a self-cleavage of 1.03.
Work on UAACAGGGGGCCACAGCAGAAGCGUUCACGUCGCAGCCCCUGUCAGAUUCAGGUGAAUCUGCGAAUUCUGCUGUGUAUCUC yielded a self-cleavage of 0.86.
With UAACAGGGGGCCACAGCAGAAGCGUUCACGUCGCAGCCCCUGUCAGAUUUUGGUGAAUCUGCGAAUCCUGCUGUAUAUCUC the self-cleavage was 0.31.
UAACAGGGGGCCACAGCAGAAGCGUUCACGUCGCAGCCCCUGUCAGAUUAUGGUGAAUCUGCGAAUUCUGCCGUAUAUCUC gave a self-cleavage of 0.86.
With UAACAGGGGGCCACAGCAGAAGCGUUCACGUCGCAGCCCCUGUCAGAUUUUGGUGAACCUGCGAAUUCUGCUGUAUAUCUC the self-cleavage was 0.35.
With UAACAGGGGGCCACAGCAGAAGCGUUCACGUCGCAGCCCCUGUCAGAUUCAGGUGAAUCUGCGAAUUCUGCUGUAUAUCUC the self-cleavage was 1.05.
Variant UAACAGGGGGCCACAGCAGAAGCGUUCACGUCGCAGCCCCUGUCAGAUUUAGGUGAAUCUGCGAAUUCUGCUGUAUAUCUC has a self-cleavage of 1.17.
UAACAGGGGGCCACAGCAGAAGCGUUCACGUCGCAGCCCCUGUCAGAUUUCGGUGAAUCUGCGAAUUCUGCUGUAUAUCUC showed a self-cleavage of 0.8.
UAACAGGGGGCCACAGCAGAAGCGUUCACGUCGCAGCCCCUGUCAGAUUUUGGUGAAUCUACGAAUUCUGCUGUAUAUCUC showed a self-cleavage of 0.55.
With UAACAGGGGGCCACAGCAGAAGCGUUCACGUCGCAGCCCCUGUCAGAUUUUGGUGAAUCUGCUAAUUCUGCUGUAUAUCUC the self-cleavage was 0.82.
UAACAGGGGGCCACAGCAGAAGCGUUCACGUCGCAGCCCCUGUCAGAUUUUGGUGAAUCUGCGAAUUCUGCUGUAUAUUUC gave a self-cleavage of 1.16.
With UAACAGGGGGCCACAGCAGAAGCGUUCACGUCGCAGCCCCUGUCAGAUUCAGGUGUAUCUGCGAAUUCUGCUGUAUAUCUC the self-cleavage was 0.68.
Work on UAACAGGGGGCCACAGCAGAAGCGUUCACGUCGCAGCCCCUGUCAGAUUCAGGUGGAUCUGCGAAUUCUGCUGUAUAUCUC yielded a self-cleavage of 0.5.
For UAACAGGGGGCCACAGCAGAAGCGUUCACGUCGCAGCCCCUGUCAGAUUGUGGUGAAUCUGCGAAUUCUGCUGUCUAUCUC, the self-cleavage was 0.54.
Variant UAACAGGGGGCCACAGCAGAAGCGUUCACGUCGCAGCCCCUGUCAGAUUGUGGUGAAUCUACGAAUUCUGCUGUAUAUCUC has a self-cleavage of 0.27.
Variant UAACAGGGGGCCACAGCAGAAGCGUUCACGUCGCAGCCCCUGUCAGAUUAUGGUGAAUCCGCGAAUUCUGCUGUAUAUCUC has a self-cleavage of 0.13.
For UAACAGGGGGCCACAGCAGAAGCGUUCACGUCGCAGCCCCUGUCAGAUUCAGGUGAAUCUGCGAAUUCUGCUGUAUUUCUC, the self-cleavage was 1.03.
Variant UAACAGGGGGCCACAGCAGAAGCGUUCACGUCGCAGCCCCUGUCAGAUUCAGGUGAAUCUGCGAAUUCUGCUGUAUGUCUC has a self-cleavage of 0.93.
UAACAGGGGGCCACAGCAGAAGCGUUCACGUCGCAGCCCCUGUCAGAUUUUGGUGAAUCUGCGUAUUCUGCUGUAUAUCUC gave a self-cleavage of 0.52.
With UAACAGGGGGCCACAGCAGAAGCGUUCACGUCGCAGCCCCUGUCAGAUUUUGGUGAAUCUGCGGAUUCUGCUGUAUAUCUC the self-cleavage was 0.99.
UAACAGGGGGCCACAGCAGAAGCGUUCACGUCGCAGCCCCUGUCAGAUUAUGGUGAAUCUGCGAAUUCUGCUGUAAAUCUC gave a self-cleavage of 0.65.
For UAACAGGGGGCCACAGCAGAAGCGUUCACGUCGCAGCCCCUGUCAGAUUAUGGUGAAUCUGCGAAUUCUGCUGUACAUCUC, the self-cleavage was 1.02.
For UAACAGGGGGCCACAGCAGAAGCGUUCACGUCGCAGCCCCUGUCAGAUUCAGGUGAAUCUGCGCAUUCUGCUGUAUAUCUC, the self-cleavage was 0.51.
With UAACAGGGGGCCACAGCAGAAGCGUUCACGUCGCAGCCCCUGUCAGAUUCAGGUGAAUCUGCGGAUUCUGCUGUAUAUCUC the self-cleavage was 0.93.
Work on UAACAGGGGGCCACAGCAGAAGCGUUCACGUCGCAGCCCCUGUCAGAUUCAGGUGAAUCUGCGUAUUCUGCUGUAUAUCUC yielded a self-cleavage of 0.46.
UAACAGGGGGCCACAGCAGAAGCGUUCACGUCGCAGCCCCUGUCAGAUUUUGGUGAAUCUGCGAGUUCUGCUGUAUAUCUC gave a self-cleavage of 0.4.
UAACAGGGGGCCACAGCAGAAGCGUUCACGUCGCAGCCCCUGUCAGAUUUUAGUGAAUCUGCGAAUUCUGCUGUAUAUCUC gave a self-cleavage of 0.99.
UAACAGGGGGCCACAGCAGAAGCGUUCACGUCGCAGCCCCUGUCAGAUUUUGGUGAAUCUGCGAAUUCUGCUGUACAUCUC gave a self-cleavage of 0.98.
UAACAGGGGGCCACAGCAGAAGCGUUCACGUCGCAGCCCCUGUCAGAUUUUGGUGAAUCUGCGAAUUCUGCUGUAAAUCUC gave a self-cleavage of 0.94.
For UAACAGGGGGCCACAGCAGAAGCGUUCACGUCGCAGCCCCUGUCAGAUUUUGGUGAAUCUGCGAAUUCUGCUGUAUAUCCC, the self-cleavage was 1.07.
Work on UAACAGGGGGCCACAGCAGAAGCGUUCACGUCGCAGCCCCUGUCAGAUUUUGGUGUAUCUGCGAAUUCUGCUGUAUAUCUC yielded a self-cleavage of 0.82.
For UAACAGGGGGCCACAGCAGAAGCGUUCACGUCGCAGCCCCUGUCAGAUUUUGGUGGAUCUGCGAAUUCUGCUGUAUAUCUC, the self-cleavage was 0.85.
